Columns and labels:
Conditions in all cases: FMN input: 0 or 200 uM; Eterna round: R93 (includes R88 designs)
MS2 coat protein [1] = experiment: apparent KD of MS2 coat protein, switch ON state; designed switch direction (-1 OFF switch, 1 ON switch): 1; higher = weaker reporter binding
How it was run: (§1)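 Apparent KD was obtained for each design as the median of normalised binding-curve fits over its clusters. RNA switches transcribed on-chip from Illumina sequencing clusters were titrated with SNAP-549-labelled MS2 coat protein (twofold steps, 0.7 or 1.5 nM to 3 µM) in 100 mM Tris-HCl pH 7.5, 80 mM KCl, 4 mM MgCl2, without or with constant ligand.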

MS2 coat protein [2] = experiment: apparent KD of MS2 coat protein, switch OFF state (with FMN for OFF switches, without FMN for ON switches); designed switch direction (-1 OFF switch, 1 ON switch): 1; higher = weaker reporter binding
How it was run: as §1

MS2 coat protein [3] = experiment: apparent KD of MS2 coat protein, switch ON state; designed switch direction (-1 OFF switch, 1 ON switch): -1; higher = weaker reporter binding
How it was run: as §1

MS2 coat protein [4] = experiment: apparent KD of MS2 coat protein, switch OFF state (with FMN for OFF switches, without FMN for ON switches); designed switch direction (-1 OFF switch, 1 ON switch): -1; higher = weaker reporter binding
How it was run: as §1

Row | Sequence | apparent KD of MS2 coat protein (MS2 coat protein [1]) [nM] | apparent KD of MS2 coat protein (MS2 coat protein [2]) [nM] | apparent KD of MS2 coat protein (MS2 coat protein [3]) [nM] | apparent KD of MS2 coat protein (MS2 coat protein [4]) [nM]
1 | AAAAAAAAUGUGUAGGAUAUCAGUAAAAAUACAUGAGGAUCACCCAUGUUCAAAAAAAAAAAAACUGAGAAGGACGUGGAUGGUCC [Design 3] | 12.3 | 11.1 |  | 
2 | AAAAAACAUGAGGAUCACCCAUGUAAAAAAAACACAGGAUAUCCCUUUAAAAAAAAAAAAGGAGAAGGGUGAAAAA [Nob's Hobby 4 - Jieux - Same State 1] | 20.4 | 23.4 |  | 
3 | AAAAAACAUGAGGAUCACCCAUGUAAAAAAAACACAGGAUAUCCCUUUUUUAAAUAAAAAGGAGAAGGGUGAAAAA [Nob's Hobby 8 - Jieux - Same State 1] | 24.1 | 30.9 |  | 
4 | AAAAAACAUGAGGAUCACCCAUGUAAAAAAAACACAGGAUAUCCCUUUUUUAAAUGGGAGGGAGAAGGGUGAAAAA [Nob's Hobby 12 - Jieux - Same State 1] | 17.4 | 29.3 |  | 
5 | AAAAAACAUGAGGAUCACCCAUGUCAAAAGACAUGAGGAUAUGUACAGACUUCGGUCUGUACAGAAGGCAUGUAAA [SS1 - 1015] | 24.6 | 273 |  | 
6 | AAAAAACAUGAGGAUCACCCAUGUCCUCGGACAUGAGGAUAUGUACAGACUUCGGUCUGUACAGAAGGCAUGAAAA [SS1 - 1014] | 713 | 756 |  | 
7 | AAAAAACAUGAGGAUCACCCAUGUCCUCGGACAUGAGGAUAUGUACAGACUUCGGUCUGUACAGAAGGCAUGUAAA [SS1 - 1018] | 901 | 684 |  | 
8 | AAAAAACAUGAGGAUCACCCAUGUCGAAAGACGUGAGGAUAUGUACAGACUUCGGUCUGUACAGAAGGCACGUAAA [SS1 - 1040] | 14.3 | 33.8 |  | 
9 | AAAAAACAUGAGGAUCACCCAUGUCGAAAGACGUGAGGAUAUGUACAGACUUCGGUCUGUACAGAAGGCAUGUAAA [SS1 - 1054] | 146 | 1110 |  | 
10 | AAAAAACAUGAGGAUCACCCAUGUCUUCGGACAUGAGGAUAUGUACAGACUUCGGUCUGUACAGAAGGCAUGUAAA [SS1 - 1017] | 323 | 61.2 |  | 
11 | GAAAAUCGAGGAUAUACAUGAGGAUCACCCAUGUCAAAAAAUGACUACACAAAAGAAAGUAGAAGGCGAUAAAG [Mat - Exclusion 3 - Mayanna mod - D130] |  |  | 28.8 | 31.2
12 | GAAAGGGCAGGAUAUGCGGAGAGAGAGAGAGAGAGAGAGAGACAUGAGGAUCACCCAUGUAGAAGGGCCGAAAG [salish99-ex2-08] |  |  | 36.9 | 38.6
13 | GAAGAACAUGAGGAUCACCCAUGUCAGGAUAUACAGAAGGGAAUAAUAUAAUCUGGAAGUAGAAGGGACAAGAA [Ex 1 May 45] |  |  | 31.8 | 51.4
14 | GAAGAACAUGAGGAUCACCCAUGUCAGGAUAUGAGCAAGGGAAUAAUAACUUGCGGAAUCAGAAGGGACAAGAA [Ex 1 May 51] |  |  | 31.7 | 43.6
15 | GACACCGGAGGAUAUACAAGUCCUUACUGUCUAAAACCAUGACAUGAGGAUCACCCAUGUAGAAGGCCGAAAAG [Atbela] |  |  | 63.3 | 118
16 | GCAAAGUGAGGAUAUACGCGAACAAAAAAAAAAAAGAAAGCGUAGAAGGCACAUGAGGAUCACCCAUGUCCAGC [Alfred 64% 2] |  |  | 23.5 | 25.1
17 | GCUGGCCAAGGAUAUACAUGAGGAUCACCCAUGUGAGAGAAAAAAGUGAGAAAGAAAAGUAGAAGGUGGUUAGG [salish99-ex3-114] |  |  | 43.9 | 41
18 | GCUGGGCAAGGAUAUACAUGAGGAUCACCCAUGUGAGAGAAAAAAGUGAGAAAGAAAAGUAGAAGGUGCUUAGG [salish99-ex3-119] |  |  | 45.8 | 77.9
19 | GCUGUGGUAGGAUAUACAUGAGGAUCACCCAUGUGAGAGAAAAAAGUGAGAAAGAAAAGUAGAAGGACCGUAGG [salish99-ex3-101] |  |  | 49 | 78.9
20 | GCUUGUCUAGGAUAUACAUGAGGAUCACCCAUGUGAGAGAAAAAAGUGAGAAAGAAAAGUAGAAGGAGGUGAGG [salish99-ex3-81] |  |  | 28.4 | 29.7

Row | Sequence | apparent KD of MS2 coat protein (MS2 coat protein [1]) [nM] | apparent KD of MS2 coat protein (MS2 coat protein [2]) [nM] | apparent KD of MS2 coat protein (MS2 coat protein [3]) [nM] | apparent KD of MS2 coat protein (MS2 coat protein [4]) [nM]
21 | GGAAAACAUGAGGAUCACCCAUGUGAGGAUAUCGAUGUCCAAAAAAGAGUGCGGGACUCGAGAAGGCACUUGGA [salish99-ex1-43] |  |  | 49.3 | 32.5
22 | GGAACACAUGAGGAUCACCCAUGUCAGGAUAUGUAGAUAAAAAGAAAAUAAAAUAAAAGCAGAAGGGACAAAAG [May 4] |  |  | 60.2 | 44.5
23 | GGAUGCCUAGGAUAUACAUGAGGAUCACCCAUGUGAGAGAAAAAAGUGAGAAAGAAAAGUAGAAGGAGGUGUCG [salish99-ex3-91] |  |  | 38 | 92.4
24 | GGCUAGUCAGGAUAUACGAACAUGUCAAAAGACGUGAAGGGACAUGAGGAUCACCCAUGUAGAAGGGACUAGCA [salish99-ex2-12] |  |  | 31.5 | 183
25 | GGUUGACAAGGAUAUACAUGAGGAUCACCCAUGUGAGAGAAAAAAGUGAGAAAGAAAAGUAGAAGGUGUUGACG [salish99-ex3-62] |  |  | 31 | 85
26 | GGUUGGCGAGGAUAUACAUGAGGAUCACCCAUGUGAGAAAAAAAAGUGAGAAAGAAAAGUAGAAGGCGCUGACG [salish99-ex3-49] |  |  | 40.1 | 157
27 | GGUUGGGUAGGAUAUACAUGAGGAUCACCCAUGUGAGAGAAAAAAGUGAGAAAGAAAAGUAGAAGGGCUUGACG [salish99-ex3-67] |  |  | 80.3 | 58.7
28 | GUAAACCUAGGAUAUACAUGAGGAUCACCCAUGUAAAAUUUAAUAAAAAGAAAAUCAAGUAGAAGGAGGUAGAU [JR_Exc003_Sub1224] |  |  | 25.4 | 29.3
29 | GUAGAGUGAGGAUAUGAUUAAAAGAAGGGAAAGAGACAGCAUCAGAAGGCACAUGAGGAUCACCCAUGUAUGAA [JR_Exc004_Sub1224] |  |  | 26.9 | 27.1
30 | UAAAAACAUGAGGAUCACCCAUGUAAGGAUAUGCUGAAAAACACGGAAAAAACGUGCAGCAGAAGGUACAAAAU [Mat - Exclusion 1 - Eli mod - D98] |  |  | 19 | 47.6
31 | UAAAACCUAGGAUAUACAUGAGGAUCACCCAUGUGGCACUCCGCAGGCAUUGUUCCCAGUAGAAGGAGGACACG [Inan] |  |  | 20.6 | 23.9
32 | UAAAACUUAGGAUAUACAUGAGGAUCACCCAUGUCAAGACAAGGAAGGUCCUAAGCCGGUAGAAGGAAGAAAAU [Bexeora] |  |  | 29.6 | 25.4
33 | UAAAGACAUGAGGAUCACCCAUGUGAGGAUAUCGGAGAUAACAGAACAUCAAGUUCAACGAGAAGGCACAGAAA [JR_Exc001_Sub401] |  |  | 47.4 | 94.7
34 | UAAAGACAUGAGGAUCACCCAUGUGAGGAUAUCGGAGAUAACAGAACAUCAAGUUCAGCGAGAAGGCACAGGAA [JR_Exc001_Sub403] |  |  | 47 | 65.5
35 | UAAAGACAUGAGGAUCACCCAUGUGAGGAUAUCGGAGAUGACGGAACAUCAAGUUCGGCGAGAAGGCGCAGGAA [JR_Exc001_Sub406] |  |  | 30.9 | 30.7
36 | UAAAGACAUGAGGAUCACCCAUGUGAGGAUAUUGGUGACUAUAAAAAAAAAUAGUCACCGAGAAGGCAUAGGAA [JR_Exc001_Sub302] |  |  | 31 | 42.4
37 | UACGUAUGAGGAUAUACAAACAGAAAAAUCAGACGUAAGUGACAUGAGGAUCACCCAUGUAGAAGGCAUAUGCA [JR_Exc002_Sub906] |  |  | 26.9 | 19.7
38 | UUAAUAGUAGGAUAUACAUGAGGAUCACCCAUGUAGCAACUACACAAAGGAACCUGAUGUAGAAGGACUUCCAG [Attionuson] |  |  | 12.4 | 13.6
39 | UUGGGACAUGAGGAUCACCCAUGUAAGGAUAUUGGCGCGCCGGCUCUGUCUGUUCCGCCGAGAAGGUACACGUU [Exclusion I] |  |  | 45.5 | 102

Reference: the supplement of paper PMC9170038
